Among the data in patent publication US20100158927A1 are MFI values, retold here.

In this assay the target is HLA-A2 molecules on the cell surface (total) (human). As to the kind of experiment: flow cytometry on 501A melanoma cells, PE-conjugated BB7.2. For orientation: A flow cytometer gives signals particle by particle.

Substance anti-HLA-A2 mAb BB7.2 (antibody) displayed an MFI of 56.4 MFI.
